Source: patent US20110158954A1, “METHOD FOR PRODUCING GAMMA DELTA T CELL POPULATION” (priority 2007, published 2011)

Columns and labels:
γδ T cells [1] = assay: Expansion of γδ T cell population using pamidronate in Yssel's medium (Example 4); assay type: cell-based; settings: human PBMCs, stimulant pamidronate 5 μM, IL-2 100 U/mL, immobilized FN fragment, day 14
Description: The expansion of a γδ T cell population was carried out in the same manner as in Example 2-(1), provided that as a basal medium for culture, a medium prepared originally by the applicant having the same composition as an Yssel's medium (hereinafter referred to as “Yssel's medium”) was used in place of IMDM, and that on the fifth day from the initiation of culture, 1 mL of an Yssel's medium containing 10% (v/v) human AB serum was added to each well, to dilute the cell suspension.
The ratio of γδ T cells was analyzed according to flow cytometry for PBMCs prepared in Example 1-(1) and the cells on the fourteenth day from the initiation of culture prepared in Example 4-(1), in the same manner as in Example 1-(4). As a result, the ratio of the γδ T cells was 8.9% for the PBMCs, and the ratio was from 89.7 to 94.3% for the cells on the fourteenth day from the initiation of culture.
(§1) The number of live cells was counted according to trypan blue staining method for the cells on the fourteenth day from the initiation of culture prepared in Example 4-(1). The expansion fold of γδ T cells was calculated in comparison of the counted number with the number of γδ T cells at the initiation of culture, in the same manner as in Example 1-(5).

Daudi cells = assay: Cytotoxic activity of cultured γδ T cell population, Calcein-AM release; assay type: cell-based, human; settings: γδ T cells expanded 14 days with pamidronate on immobilized FN fragment; target cells Daudi; E/T 30; 4 hours
Description: The cytotoxic activity was determined for the cells on the fourteenth day from the initiation of culture prepared in Example 3-(1). The cytotoxic activity was evaluated by a method for assaying cytotoxic activity using Calcein-AM [Lichtenfels R. et al., J. Immunol. Methods 172(2), 227-239 (1994)]. […]
The cells on the fourteenth day from the initiation of culture prepared in Example 3-(1) were diluted with an RPMI 1640 medium containing 5% (v/v) human AB serum, 0.1 mM NEAA mixture, 1 mM sodium pyruvate (all manufactured by Cambrex), 2 mM L-glutamine, 10 μg/mL streptomycin sulfate (hereinafter referred to as “5HRPMI”) as effector cells, so as to have a concentration of 3×10^6 cells/mL. […] Upon the addition, the ratio of the effector cells (E) to the Calcein-labeled target cells (T) is expressed as an E/T ratio, and the measurements were made at an E/T ratio of 30. […] Thereafter, 100 μL of the culture supernatant was collected from each well, and the amount of Calcein released into the culture supernatant was determined with a fluorescence plate reader (Mithras LB 940, manufactured by BERTHOLD TECHNOLOGIES) (excited at 485 nm/measured at 535 nm). The “cytotoxic activity (%)” was calculated in accordance with the following formula.
Cytotoxic Activity (%)={(Measured Value in Each Well−Minimum Released Amount)/(Maximum Released Amount−Minimum Released Amount)}×100 […]

γδ T cells [2] = assay: Expansion of γδ T cell population using zoledronate (Example 5); assay type: cell-based; settings: human PBMCs; RPMI 1640, then 10HRPMI+L-Gln; stimulant zoledronate 1 μM for 48 hours; IL-2 100 U/mL; immobilized FN fragment; day 14
Description: The immobilization of an FN fragment was carried out in the same manner as in Example 1-(2), provided that a 6-well cell culture plate was used as a plate to be immobilized, and that an ACD-A solution (pH 5.0) containing H296-H296 (final concentration: 3 μg/mL) was added in a volume of 1.2 mL/well each.
PBMCs prepared in Example 1-(1) were suspended in an RPMI 1640 medium containing 0.25% (w/v) HSA so as to have a concentration of 1×10^6 cells/mL, to prepare a cell suspension. Thereafter, the above cells were added to a plate to which nothing was immobilized, or the plate immobilized with H296-H296 prepared in Example 5-(1), in a volume of 5 mL/well each. […]
The ratio of γδ T cell was analyzed according to flow cytometry for PBMCs prepared in Example 1-(1) and the cells on the fourteenth day from the initiation of culture prepared in Example 5-(2), in the same manner as in Example 1-(4). […]
as §1, with “5-(2).” for “4-(1).”

Which results are given for “CH-296: polypeptide comprising a cell binding domain, a heparin binding domain and a CS-1 domain of fibronectin (SEQ ID NO: 13)”?
Expansion Fold of γδ T Cells (Folds) Fourteenth Day of Culture (γδ T cells [1]): ×101.4 Folds; Cytotoxic Activity (%) (Daudi cells): 33.23%

B1: H296-H296: modified fibronectin fragment in which two H-296's are connected to each other (SEQ ID NO: 22) (protein)
chain: AIPAPTDLKFTQVTPTSLSAQWTPPNVQLTGYRVRVTPKEKTGPMKEINLAPDSSSVVVSGLMVATKYEVSVYALKDTLTSRPAQGVVTTLENVSPPRRARVTDATETTITISWRTKTETITGFQVDAVPANGQTPIQRTIKPDVRSYTITGLQPGTDYKIYLYTLNDNARSSPVVIDASTAIDAPSNLRFLATTPNSLLVSWQPPRARITGYIIKYEKPGSPPREVVPRPRPGVTEATITGLEPGTEYTIYVIALKNNQKSEPLIGRKKTDELPQLVTLPHPNLHGPEILDVPSTAMAIPAPTDLKFTQVTPTSLSAQWTPPNVQLTGYRVRVTPKEKTGPMKEINLAPDSSSVVVSGLMVATKYEVSVYALKDTLTSRPAQGVVTTLENVSPPRRARVTDATETTITISWRTKTETITGFQVDAVPANGQTPIQRTIKPDVRSYTITGLQPGTDYKIYLYTLNDNARSSPVVIDASTAIDAPSNLRFLATTPNSLLVSWQPPRARITGYIIKYEKPGSPPREVVPRPRPGVTEATITGLEPGTEYTIYVIALKNNQKSEPLIGRKKTDELPQLVTLPHPNLHGPEILDVPST
modifications: Fibronectin fragment named H296-H296
With B1 as the molecule, how does the “Expansion Fold of γδ T Cells (Folds) Fourteenth Day of Culture” value (γδ T cells [2]) read?
Its value is “×107.5 Folds”.
